Data as given in patent publication US20240218054A1 (MABLOC, published 2024).
Changes are numbered by the printed parent chain.

B1: ADI-45126 (antibody, V domains shown)
VH: EVQLVESGGGLVQPGGSLRLSCAASGFTFSDHYMDWVRQAPGKGLEWVGRSTNKPNSYTTTYAASVRGRFTISRDESKNSLYLQMNSLKSDDTAVYYCVTTTVILFDYWGQGTLVTVSS
VL: SYELTQPPSVSVSPGQTARITCSGDALPKKYVYWFQQKSGQAPVLVIYEDRRGPSGIPERFSGSTSGTMATLTIRGAQVEDEADYFCYSTDSSGLLGVFGGGTKLTVL
notes: full-length IgG; also called Antibody Number 106
B2: ADI-42216 (antibody, V domains shown)
VH: QVTLKESGPVLVKPTETLTLTCTVSGFSLSNTKMGVTWIRQPPGKALEWLAHIFSNDEKSCNTSLKSRLTISKDTSKSQVVLTMTNMDPVDTATYYCARLWFTEYPGAFDIWGQGTMVTVSS
VL: QAVVTQPPSASGSPGQSVTISCTGTSSDVGGYNYVSWYQQHPGKAPKLMVYEVTKRPSGVPDRFSGSKSGNAASLTVSGLQAEDEAEYYCSSYAGSNALVFSGGTKLTVL
notes: full-length IgG; also called Antibody Number 112
B3: ADI-50220 (antibody, V domains shown)
VH: EVQLVESGGGVVQPGRSLRLSCAASGFIFSSNSMHWVRQAPGKGLKWVAIISNDGRNKFYADAVKGRFTVSRDNSKNTLYLQMNSLRPEDTAVYYCARGYDSSGYWGFGDNWGQGTLVTVSS
VL: DIQVTQSPSTLSASVGDRVSITCRASQTISSWLAWYQQKPGKAPKLLMYKASNLQSGVPSRFTGSGSGTEFTLTISSLQPDDFATYYCQQYYSYPYTFGPGTKVDIK
notes: full-length IgG; also called Antibody Number 110
B4: ADI-48462 (antibody, V domains shown)
VH: QVQLVQSGGGVVQPGRSLRLSCAASGFTFSSYGMHWVRQAPGKGLEWVAVIWYDGSNKYYADSVKGRFTISRDNSKNTLYLQMNSLRAEDTAVYYCARDYYGSGDGYFDYWGQGTTVTVSS
VL: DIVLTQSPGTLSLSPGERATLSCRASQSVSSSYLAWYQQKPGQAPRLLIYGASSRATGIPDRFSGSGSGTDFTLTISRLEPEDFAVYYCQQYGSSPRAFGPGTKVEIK
notes: full-length IgG; also called Antibody Number 100
B5: ADI-50203 (antibody, V domains shown)
VH: EVQLVESGGGVVQPGRSLRLSCVPSGFTFSSYAMHWVRQAPGKGLEWVAMMSYDGGDKNYADSVKGRFTISRDNSKNTLYLQMRSLRAEDTAIYYCARAYDSRGYYYIEHWGQGTLVTVSS
VL: GIQLTQSPSTLSASVGDRVTITCRASQSVSDWLAWYQQKPGRAPNLLIYRASSLQSGVPSRFSGSGSGTEFTLTINSLQPDDFATYYCQQYKTYWTFGQGTKVEIK
notes: full-length IgG; also called Antibody Number 103
B6: ADI-42200 (antibody, V domains shown)
VH: EVQLVESGGGVVQPGRSLRLSCAASGLTFSTYTLHWVRQAPGKGLEWVAVISSDGGNKYYADSVKGRFTISRDSSKNTLYLQMNSLRTEDTAVYYCAGGSPDYWGQGALVTVSS
VL: EIVMTQSPATLSLSPGERGTLSCRTSQSVSSFLAWYQQKPGQAPRLLMYDASNRATGIPARFSGSGSGTDFTLTISSLEPEDFAVYYCQQRSNWPYTFGQGTKVDIK
notes: full-length IgG; also called Antibody Number 102
B7: ADI-49039 (antibody, V domains shown)
VH: QVQLQESGPGLVKPSETLSLTCAVSGYSISSGFYWGWIRQPPGKGLEWIGSMYQSGITYYNPSLKSRVTISVDTSKSQFSLKLTSVTAADTAMYYCARNAPENYYGSGRESFDIWGQGTMVTVSS
VL: QSVLTQPPSVSAAPGQKVTISCSGSSSNIGNNYVSWYQQLPGAAPKLLIYDNKKRPSGIPDRFSGSASGTSATMGITGLQTGDEADYYCGTWDSSLSAWVFGGGTKVTVL
notes: full-length IgG; also called Antibody Number 1
B8: ADI-42229 (antibody, V domains shown)
VH: B7 VH with Q54H, S77N, M120T
VL: B7 VL with L4V, L40F, G42R, A43T, M74L
notes: full-length IgG; also called Antibody Number 3
B9: ADI-42195 (antibody, V domains shown)
VH: EVQLLESGGGMVQPGRSLRLSCAASGFTFDDYDMHWVRQGPGKGLEWVSGISWNSGGRGYADSVKGRFTISRDNAKNSLYLQMNSLRVEDTALYYCVKDYCSGGRCYSFDYWGQGTLVTVSS
VL: DIQMTQSPSSLSASVGDRVTITCQASQDISNYLNWYQQKPGKAPKLLIYDVSKLKTGVPPRFSGSGSGTDFTFTISSLQPEDIATYYCQQWGTFGQGTKVDIK
notes: full-length IgG; also called Antibody Number 116
B10: ADI-42149 (antibody, V domains shown)
VH: QVQLVQSGAEVRKPGASVKVSCKASGYTFTSYGISWVRQAPGQGLEWMGWISTYNGNTNYAQKLQGRVTMTTDTSTSTAYMELRSLRSDDTAVYYCAREIDSNYVFDYWGQGTLVTVSS
VL: QSVLTQPASVSGSPGQSITISCTGTSSDVGGYNYVSWYQQHPGKAPKLMIYEVSNRPSGVSNRFSGSKSGNTASLTISGLQAEDEADYYCSSYTSSGTNIFGTGTKLTVL
notes: full-length IgG
B11: ADI-49139 (antibody, V domains shown)
VH: EVQLVETGSGLVRPSGTLSLTCAVSGDSISSNNWWSWVRQPPGKGLEWIGEIYHSGSTSYNPSLKSRVTISIDKSNNHFSLKLTSVTAADTAVYYCAKDMWAGTTTNWFGPWGQGTLVTVSS
VL: QSVLTQPPSVSAAPGQKVTISCSGSSSNIGYSHVSWYQQLPGTAPKVLIYDNDKRPSGIPDRFSGSKSGTSATLGITGLQTGDEADYYCGTWDTSLGVVFGGGTKLTVL
notes: full-length IgG; also called Antibody Number 11
B12: ADI-45074 (antibody, V domains shown)
VH: QVQLQQWGAGLLKPSETLSLTCAVYGGSFSGYYWSWIRQPPGKGLEWIGEINHRGSTDYNPSLKSRVTMSVDTSKNQFSLRLSSVTAADTALYYCARGRLAWGLRGQKSPNFFAYWGQGATVTVSS
VL: DIQMTQSPDSLAVSLGERATINCKSSQSVFYSSNSQNYLAWYQQKPGQPPKLLIYWASTRESGVPDRFSGSGSATDFSLTISSLQAEDVAVYYCQQFHSPPWTFGQGTKLEIK
notes: full-length IgG
B13: ADI-42181 (antibody, V domains shown)
VH: EVQLVESGGGLVQPGGSLRLSCAASGFTFSNYWMNWVRQAPGKGLEWVANIKQDGSEKYYVDSVKGRFTISRDNAKNSLYLQMNSLRAEDTAVYYCARKLSYSSGWYYFDYWGQGTLVTVSS
VL: DIVMTQTPATLSVSPGERATLSCRASQSVSSNVAWYQQKPGQAPRLLIHGASTRATGIPARFSGSGSGTEFTLTISSLQSEDFAVYYCQQYNNWPPLTFGGGTKLEIK
notes: full-length IgG
B14: ADI-45127 (antibody, V domains shown)
VH: EVQLVESGPVLVKPTETLRLTCTVSGFSLSNTKLGVSWIRQPPGKALEWLAHIFSNAEKSSSKSLKSRLSISQDTSKSLVVLTMTNMDPVDTATYFCARIPVEYGTPRGSFDTWGQGTTVTVSS
VL: QSVLTQPPSASGSPGQSVTISCAGTRSDVGGYNFVSWYQQHPGKAPKLLIYEVNKRPSGVPDRFSGSKSANTASLTVSGLQAEDEAEYFCSSYGGNNDLVFGGGTKVTVL
notes: full-length IgG; also called Antibody Number 101
B15: ADI-50534 (antibody, V domains shown)
VH: EVQLQESGPGLVKPSETLSLTCTVSGGSISSSSYYWGWIRQPPGKGLEWIGSIYYSGSTYYNPSLKSRVTISVDTSKNQFSLKLSSVTAADTAVYYCARHSSGSYYLAGYYFDYWGQGTLVTVSS
VL: NFMLTQPHSVSESPGKTVTISCTRSSGSIASNYVQWYQQRPGSAPTTVIYEDNQRPSGVPDRFSGSIDSSSNSASLTISGLKTEDEADYYCQSYDSSNWVFGGGTKLTVL
notes: full-length IgG
B16: ADI-42172 (antibody, V domains shown)
VH: QVQLVESGGGVVQPGRSLRLSCAASGFTFSSYGMHWVRQAPGKGLEWVAVMSYDGSNKYYADSLKGRFTISRDNSKNTLYLQMNSLRAEDTAVYFCAKAYDSSAYYYLDYWGQGTLVTVSS
VL: EIVLTQSPSTLSASVGDRVTITCRASQSISDWLAWYQQKPGKAPNLLIYRASSLESGVPSRFSGSGSGTEFTLTISSLQPDDFATYYCQQYNRYPYTFGQGTKVEIK
notes: full-length IgG; also called Antibody Number 117
B17: ADI-42178 (antibody, V domains shown)
VH: B16 VH with Q1E, V12I, T28N, M51I, L64V, Y94H, F95Y, S103R, A104G
VL: B16 VL with E1D, V3Q, Y36F, N45K, S53G, S56T, P95S
notes: full-length IgG
B18: ADI-42141 (antibody, V domains shown)
VH: QVQLVQSGGGLVQPGGSLRLSCAASGFTFSDHYMDWVRQAPGKGLEWVGRTRNKANSYTTKYAASVKGRFTISRDDSKNSLYLQMNSLKTEDTAVYYCARVEGGAWGAFDIWGQGTTVTVSS
VL: SYVLTQPPSVSVSPGQTARITCSGDALPKQYGYWYQQKPGQAPVLVIYKDSERPSGIPERFSGSSSGTTVTLTISGVQAEDEADYYCQSADRSGTVVFGGGTKLTVL
notes: full-length IgG; also called Antibody Number 111
B19: ADI-49140 (antibody, V domains shown)
VH: EVQLVESGGGLVQPGGSLRLSCAASGFTFSDHYMDWVRQAPGRGLEWVGRSRNKVNSYTTDYAASVKGRFTISRDDSKNSLFLRMNSLKTEDTAVYYCARLTDSGYDDWGLGTLVTVSS
VL: QPELTQPPSVSVSPGQTARITCSGDALSKQYAYWYQQKPGQAPVVVIYKDSERPSGIPERFSGSRSGTTVTLTISGVQAEDEADYYCHSPDSHVVFGGGTKLTVL
notes: full-length IgG
B20: ADI-42227 (antibody, V domains shown)
VH: EVQLLESGAEVKEPGSSVKVSCKPSGGTFSSYVISWVRQAPGQGLEWMGGIIPIFGTPNYAQKFQGRVTITADDSTSTAHMELSSLTSDDTAVYYCARETYYYGSGSVPVHDWGQGTLVTVSS
VL: EIVMTQSPSSLSASVGDRVTITCRASQGIRNDLGWYQQKPGKAPKRLIYAASSLQSGVPSRFSGSGSGREFTLTISSLQPEDFATYYCLQHNTYPWTFGQGTKVEIK
notes: full-length IgG
B21: ADI-46741 (antibody, V domains shown)
VH: EVQLVESGPGLVKPSETLSLTCTVSGGSISSYYWSWIRQPPGKGLEWIGYIYYSGSTNYNPSLKSRVTISVDTSKNQFSLKLSSVTAADTAVYYCARETCSGGSCYYRVGSAFDIWGQGTTVTVSS
VL: SYELIQLPSASVAPGKTARITCGGNNIGSKSVHWYQQKPGQAPVLVVYDDSDRPSGIPERFSGSNSGNTATLTISRVEAGDEADYYCQVWDSSSDHEVFGGGTKLTVL
notes: full-length IgG; also called Antibody Number 115
B22: ADI-49041 (antibody, V domains shown)
VH: EVQLVESGGGLVKPGGSLRLSCAASGFTFSHAWMTWVRQAPGKGLEWVGRIKSETDGGTANYAAPVKGRFTISRDDSKNTVYLQMVSLKTEDTAVYYCATAGIFGVVIMKGFDHWGQGTTVTVSS
VL: DIVMTQSPSTLSASVGDRVVITCRASQSISNWLAWYQQKSGKAPKLLIYKASRLESGVPSTFSGSGSGTEFTLTISSLQADDFASYYCQQYNDYPWTFGQGTKVEIK
notes: full-length IgG
B23: ADI-42225 (antibody, V domains shown)
VH: QVQLQESGPGLVKPSGTLSLTCAVSGGSITSSNWWSWVRQPPGKGLEWIGDIYHSGSTSYNPSLKSRVTISVDKSKNHFSLKLTSVTAADTAVYYCARIAAGYSTSWYYFDYWGQGTLVTVSS
VL: QSALTQPPSVSAAPGQKVTISCSGSSSNIGNSYVSWYQQVPGTAPKLLIYDNNKRPSGIPDRFSGSKSGTSATLGITGLQAGDEADYYCGTWDTSLSAGRVFGRGTKLTVL
notes: full-length IgG; also called Antibody Number 10

Biological target: T1, recombinant YFV E protein (soluble E, sE; YFV Asibi strain) (Yellow fever virus, Asibi strain, UniProt Q6DV88 286-678)
T1 construct: also called YFV E antigen; YFV E monomer
T1 sequence (Q6DV88 286-678): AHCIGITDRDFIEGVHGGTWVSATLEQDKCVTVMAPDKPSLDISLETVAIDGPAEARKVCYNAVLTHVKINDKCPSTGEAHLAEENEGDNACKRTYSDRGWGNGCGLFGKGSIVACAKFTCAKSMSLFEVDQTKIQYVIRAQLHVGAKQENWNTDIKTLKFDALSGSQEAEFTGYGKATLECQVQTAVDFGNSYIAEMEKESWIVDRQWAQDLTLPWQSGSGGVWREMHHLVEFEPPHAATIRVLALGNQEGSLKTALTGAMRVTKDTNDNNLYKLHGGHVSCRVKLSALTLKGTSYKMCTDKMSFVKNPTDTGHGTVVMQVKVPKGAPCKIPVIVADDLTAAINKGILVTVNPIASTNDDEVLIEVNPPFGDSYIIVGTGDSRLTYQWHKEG
Assay: BLI monovalent (IgG on tip)

Going from B1 to B2, the Kd rises from 1.68 nM to 11.4 nM (6.8-fold).

Going from B3 to B4, the Kd rises from 3.64 nM to over 100 nM.

Compared with B5, B6 is 4-fold lower in Kd: 22.4 nM for the first, 5.63 nM for the second.

First: B7
Second: B8
The Kd of the first is 53-fold higher: 415 nM for the first, 7.87 nM for the second.

First: B9
Second: B10
The Kd of the first is 95-fold lower: 1.86 nM for the first, 177 nM for the second. The first binds more tightly here.

Compared with B11, B12 is 4.9-fold lower in Kd: 3.45 nM for the first, 0.699 nM for the second. The second binds more tightly here.

Compared with B13, B14 is 4.7-fold lower in Kd: 31.5 nM for the first, 6.69 nM for the second. The second binds more tightly here.

B15 and B16 cannot be ordered by Kd: over 100 nM for the first, 129 nM for the second.

Compared with B17, B18 is 20-fold lower in Kd: 34.4 nM for the first, 1.75 nM for the second. The second binds more tightly here.

First: B19
Second: B20
The Kd of the first is 1.6-fold higher: 1.04 nM for the first, 0.658 nM for the second.

First: B21
Second: B22
The Kd of the first is higher: over 100 nM for the first, 0.997 nM for the second. The second binds more tightly here.

B23 was tested, and the Kd was 31.5 nM.
